1 molecule from publication PMC6851107, “Characterization of the dynamics and the conformational entropy in the binding between TAZ1 and CTAD-HIF-1α” (Scientific Reports, 2019) can be followed below.

This test concerns the target T1, transcriptional adapter zinc binding 1 (TAZ1) domain of CREB binding protein (CBP) (mouse (numbering; the same sequence in …, UniProt P45481 340-439).
T1 construct: Isotope-labelled (15N; or 2H, 13C, 15N; or 10% 13C) or unlabelled, depending on the NMR sample
In words: NMR relaxation (15N backbone and 2H methyl side chain) of the complex; 1.3 mM labelled TAZ1 with 1.8 mM unlabelled CTAD-HIF-1α, and 1.3 mM labelled CTAD-HIF-1α with 1.8 mM unlabelled TAZ1; 15 mM HEPES pH 6.8, 50 mM NaCl, 3 mM TCEP, 0.01% NaN3, 7% D2O; 303 K. Conditions: both partners purified.

T1 sequence (P45481 340-439): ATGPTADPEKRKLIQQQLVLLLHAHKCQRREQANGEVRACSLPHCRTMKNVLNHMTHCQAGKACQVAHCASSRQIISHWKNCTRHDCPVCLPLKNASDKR

B1: C-terminal transactivation domain of hypoxia inducible factor subunit 1α (CTAD-HIF-1α) (domain or fragment, UniProt Q16665 776-826, looked up)
chain: SDLACRLLGQSMDESGLPQLTSYDCEVNAPIQGSRNLLQGEELLRALDQVN
notes: Unlabelled or 2H, 13C, 15N-labelled, depending on the NMR sample
As to B1, the binding result was “binds”.
